In US20180155451A1 (published 2018):
Changes are numbered by the printed parent chain. Numbers in names are those of the source.

T1: FcgRIIa type H extracellular domain with C-terminal His tag (human, UniProt P12318 34-217)
T1 construct: extracellular domain; also called FcgRIIaH; FcgRIIa H; not shown: His tag at the C terminus
T1 sequence (looked up): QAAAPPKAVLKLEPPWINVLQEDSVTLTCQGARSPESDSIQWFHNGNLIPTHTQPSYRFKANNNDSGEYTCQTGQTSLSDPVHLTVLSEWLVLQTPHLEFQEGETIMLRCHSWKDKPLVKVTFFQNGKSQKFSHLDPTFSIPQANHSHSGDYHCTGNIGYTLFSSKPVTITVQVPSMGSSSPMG

T2: FcgRIIa type R extracellular domain with C-terminal His tag (human, UniProt P12318 34-217)
T2 construct: extracellular domain; also called FcgRIIaR; FcgRIIa R; not shown: His tag at the C terminus
T2 sequence (looked up): T1 sequence (looked up) with H134R

T3: FcgRIIb extracellular domain with C-terminal His tag (human, UniProt P31994 43-217)
T3 construct: extracellular domain; Expressed in FreeStyle293 cells; also called FcγRIIb; 2b; not shown: His tag at the C terminus
T3 sequence (looked up): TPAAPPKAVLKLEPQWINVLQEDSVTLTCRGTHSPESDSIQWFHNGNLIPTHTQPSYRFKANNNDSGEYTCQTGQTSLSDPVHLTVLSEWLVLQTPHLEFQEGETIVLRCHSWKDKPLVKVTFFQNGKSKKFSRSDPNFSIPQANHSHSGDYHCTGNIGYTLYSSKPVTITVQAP

B1: J142-z72/L180-k (antibody, human IgG4 S228P, kappa)
heavy: QVQLVQSGSELKKPGASVKVSCKASGYTFTDNNMDWVRQAPGQGLEWMGDINTRSGGSIYNEEFQDRVTMTIDKSTGTAYMELSSLRSEDTAVYYCARRRSYGYYHDEWGEGTLVTVSSASTKGPSVFPLAPCSRSTSESTAALGCLVKDYFPEPVTVSWNSGALTSGVHTFPAVLQSSGLYSLSSVVTVPSSSLGTKTYTCNVDHKPSNTKVDKRVESKYGPPCPPCPAPEFLGGPSVFLFPPKPKDTLMISRTPEVTCVVVDVSQEDPEVQFNWYVDGVEVHNAKTKPREEQFNSTYRVVSVLTVLHQDWLNGKEYKCKVSNKGLPSSIEKTISKAKGQPREPQVYTLPPSQEEMTKNQVSLTCLVKGFYPSDIAVEWESNGQPENNYKTTPPVLDSDGSFFLYSRLTVDKSRWQEGNVFSCSVMHEALHNRFTQKSLSLSP
light: DIQMTQSPSSLSASVGDRVTITCKASRNIERNLAWYQQKPGQAPELLIYSASRKESGVPDRFSGSRYGTDFTLTISSLQPEDLATYYCQQYYSPPLTFGGGTKVEIKRTVAAPSVFIFPPSDEQLKSGTASVVCLLNNFYPREAKVQWKVDNALQSGNSQESVTEQDSKDSTYSLSSTLTLSKADYEKHKVYACEVTHQGLSSPVTKSFNRGEC
notes: also called homomeric antibody against FX
B2: IL6R-BP256/IL6R-L (antibody, human IgG1, kappa)
heavy: QVQLQESGPGLVKPSETLSLTCAVSGHSISHDHAWSWVRQPPGEGLEWIGFISYSGITNYNPSLQGRVTISRDNSKNTLYLQMNSLRAEDTAVYYCARSLARTTAMDYWGEGTLVTVSSASTKGPSVFPLAPSSKSTSGGTAALGCLVKDYFPEPVTVSWNSGALTSGVHTFPAVLQSSGLYSLSSVVTVPSSSLGTQTYICNVNHKPSNTKVDKKVEPKSCDKTHTCPPCPAPDLLGDDDVFLFPPKPKDTLMISRTPEVTCVVVDVSDEDGEVKFNWYVDGVEVHNAKTKPREEQYNSTYRVVSVLTVLHQDWLNGKEYKCKVSNKALPRPIEKTISKAKGQPREPQVYTLPPSRDELTKNQVSLTCLVKGFYPSDIAVEWESNGQPENNYKTTPPVLDSDGSFFLYSKLTVDKSRWQQGNVFSCSVMHEALHNHYTQESLSLSP
light: not shown
notes: Homodimerized antibody; IL6R-BP256 is IL6R-BP208 with S239D
B3: IL6R-AP002/IL6R-BP256/IL6R-L (antibody, human IgG1, kappa)
heavy 1: B2 heavy with D241S, D358K, H437R, E441K
heavy 2: B2 heavy
light: not shown
notes: Heterodimerized antibody with S239D in one H chain only; IL6R-AP002 is IL6R-A5 (IL6R-G1d with D356K and H435R) with E233D, G237D, P238D, H268D, P271G and A330R
B4: IL6R-BP257/IL6R-L (antibody, human IgG1, kappa)
heavy: B2 heavy with D241E
light: not shown
notes: Homodimerized antibody; IL6R-BP257 is IL6R-BP208 with S239E
B5: IL6R-AP002/IL6R-BP257/IL6R-L (antibody, human IgG1, kappa)
heavy 1: B2 heavy with D241S, D358K, H437R, E441K
heavy 2: B2 heavy with D241E
light: not shown
notes: Heterodimerized antibody with S239E in one H chain only

The binders below were run against T4, Protein A (UniProt P38507 37-327) (assay: rProtein A Sepharose column, stepwise pH elution; fractions analysed by cation exchange chromatography).
T4 construct: bought resin; construct not described; also called rProtein A Sepharose Fast Flow

Row | Binder | binding result
1 | B1 | no binding

These binders were tested against T5, FcgRIIIa type V extracellular domain with C-terminal His tag (human, UniProt P08637 17-208) (assay: SPR (Biacore), antibody captured on chip, soluble FcgR as analyte; too weak for kinetics, KD from steady-state 1:1 equation).
T5 construct: extracellular domain; also called FcgRIIIaV; FcgRIIIa V; not shown: His tag at the C terminus
Experimental: (§1) KD can be calculated by substituting the values of Rmax, RI, and C into this equation. The values of RI and C can be determined from the sensorgram of the measurement results and measurement conditions. Rmax was calculated according to the following method.

T5 sequence (P08637 17-208 F176V): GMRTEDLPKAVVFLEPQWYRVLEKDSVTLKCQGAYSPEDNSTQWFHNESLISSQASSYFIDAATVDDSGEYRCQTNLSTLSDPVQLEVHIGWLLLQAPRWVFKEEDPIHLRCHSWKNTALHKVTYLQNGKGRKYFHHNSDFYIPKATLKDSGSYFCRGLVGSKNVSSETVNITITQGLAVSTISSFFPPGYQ

Row | Binder | Kd [nM]
2 | B2 | 11000
3 | B3 | 17000
4 | B4 | 19000
5 | B5 | 14000

Each binder was assayed against T1, FcgRIIa type H extracellular domain … in the same assay as above.
Experimental: as §1

Row | Binder | Kd [nM]
6 | B2 | 21000
7 | B4 | 39000

These binders were tested against T1, FcgRIIa type H extracellular domain … (assay: SPR (Biacore), antibody captured on chip, soluble FcgR as analyte, kinetic 1:1 fit).
Experimental: (§2) The variants were assessed for the binding activity to FcgR Ia, FcgR IIaR, FcgR IIaH, and FcgRIIb according to the method described in Reference Example 8.
(§3) Analysis of interaction between obj ective antibody and the FcγR was carried out using Biacore T100 (GE Healthcare), Biacore T200, Biacore A100, and Biacore 4000. HBS-EP+ (GE Healthcare) was used as the running buffer, and the measurement temperature was set to 25° C. Chips produced by immobilizing the antigen peptide by the amine coupling method to a Series S sensor Chip CM5 (GE Healthcare), chips produced by allowing preliminarily biotinylated antigen peptides to interact with and immobilize onto a Series S Sensor Chip SA (certified) (GE Healthcare), chips produced by immobilizing Protein L (ACTIGEN, BioVision) to Series S Sencor Chip CM5 (GE Healthcare), or chips produced by immobilizing Protein A/G (Thermo Scientific) to Series S Sencor Chip CM5 (GE Healthcare) were used. Antibodies of interest were captured onto these chips, and allowed to interact to each FcγR diluted with running buffer. To regenerate and repeatedly use the chip, the antibodies captured onto the chip were washed off by reacting 10 mM glycine-HCl, pH 1.5.

Row | Binder | Kd [nM]
8 | B3 | 4200
9 | B5 | 4900

The binders below were run against T2, FcgRIIa type R extracellular domain … in the same assay as above.
Experimental: as §2, §3

Row | Binder | Kd [nM]
10 | B2 | 730
11 | B3 | 140
12 | B4 | 1300
13 | B5 | 130

Each binder was assayed against T6, FcgRIa extracellular domain with C-terminal His tag (human, UniProt P12314 16-292) in the same assay as above.
T6 construct: extracellular domain; Expressed in FreeStyle293 cells; also called FcγRIa; not shown: His tag at the C terminus
Experimental: as §2, §3

T6 sequence (P12314 16-292): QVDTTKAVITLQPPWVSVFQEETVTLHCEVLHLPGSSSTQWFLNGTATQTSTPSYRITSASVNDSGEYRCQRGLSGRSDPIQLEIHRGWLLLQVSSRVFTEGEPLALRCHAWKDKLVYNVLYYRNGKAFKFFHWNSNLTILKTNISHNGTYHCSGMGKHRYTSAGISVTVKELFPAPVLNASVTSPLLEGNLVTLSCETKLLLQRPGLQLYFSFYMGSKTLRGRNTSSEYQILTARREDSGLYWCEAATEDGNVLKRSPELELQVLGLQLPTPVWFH

Row | Binder | Kd [nM]
14 | B2 | 2
15 | B3 | 3.6
16 | B4 | 0.31
17 | B5 | 1.9

These binders were tested against T3, FcgRIIb extracellular domain with … in the same assay as above.
Experimental: as §2, §3

Row | Binder | Kd [nM]
18 | B2 | 87
19 | B3 | 4.1
20 | B4 | 430
21 | B5 | 4.7

Each binder was assayed against T1, FcgRIIa type H extracellular domain … (assay: SPR (Biacore); KD of IL6R-B3/IL6R-L for this FcgR divided by KD of the sample).
Experimental: as §3

Row | Binder | Relative KD [ratio]
22 | B2 | 0
23 | B3 | 0.2
24 | B4 | 0
25 | B5 | 0.2

Each binder was assayed against T2, FcgRIIa type R extracellular domain … in the same assay as above.
Experimental: as §3

Row | Binder | Relative KD [ratio]
26 | B2 | 1.5
27 | B3 | 7.7
28 | B4 | 0.9
29 | B5 | 8.3

Each binder was assayed against T3, FcgRIIb extracellular domain with … in the same assay as above.
Experimental: as §3

Row | Binder | Relative KD [ratio]
30 | B2 | 35.7
31 | B3 | 752
32 | B4 | 7.2
33 | B5 | 657

What follows are binders tested against T3, FcgRIIb extracellular domain with … (assay: SPR (Biacore); KD of the sample for FcgRIIaR divided by its KD for FcgRIIb (selectivity for FcgRIIb)).
Experimental: as §3

Row | Binder | KD(IIaR)/KD(IIb) [ratio]
34 | B2 | 8.4
35 | B3 | 34.3
36 | B4 | 3
37 | B5 | 27.7
